# Source: US9243044B2, “Anticoagulant polypeptide and applications thereof” (GUANGDONG MEDICAL COLLEGE, priority 2011, dated 2016)
# T1: human fXIIa (Homo sapiens, UniProt P00748)
# T1 construct: Human coagulation factors IIa (thrombin), Xa, XIa, XIIa, EGR-fXa; purchased Haematologic Technologies Inc (United States)
# T1 sequence (P00748 373-615 limits assumed): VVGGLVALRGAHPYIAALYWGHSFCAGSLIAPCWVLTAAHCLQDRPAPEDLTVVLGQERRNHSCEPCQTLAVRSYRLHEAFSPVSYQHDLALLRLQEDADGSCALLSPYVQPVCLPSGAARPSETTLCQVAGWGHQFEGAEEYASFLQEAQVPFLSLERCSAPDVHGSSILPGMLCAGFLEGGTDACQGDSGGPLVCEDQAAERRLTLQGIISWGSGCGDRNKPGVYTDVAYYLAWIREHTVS
# T1 sequence (P00748 20-372 limits assumed): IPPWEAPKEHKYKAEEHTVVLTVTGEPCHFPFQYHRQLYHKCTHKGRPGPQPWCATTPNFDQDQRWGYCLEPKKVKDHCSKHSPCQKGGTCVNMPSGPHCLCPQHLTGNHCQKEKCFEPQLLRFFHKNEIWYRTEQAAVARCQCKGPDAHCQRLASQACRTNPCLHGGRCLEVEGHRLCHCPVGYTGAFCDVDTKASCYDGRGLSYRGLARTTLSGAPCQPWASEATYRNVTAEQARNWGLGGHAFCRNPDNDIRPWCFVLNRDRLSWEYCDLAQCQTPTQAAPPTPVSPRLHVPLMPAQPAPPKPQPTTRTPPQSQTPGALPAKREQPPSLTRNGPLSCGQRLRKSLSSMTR
# B1: NAPTin-5 (protein)
# chain: NPSCGENERHDECSRKECDPKCKYDGTEEKDDEKPVVCLTRVCYGDCICRDGFLRNKNGACVKAEDCEL
# modifications: Sequence derived from Ancylostoma caninum or Synthetic
# B2: NAPTin-7 (protein)
# chain: NPSCGENERHDECSRKECDPKCKYDGTEEKDDEKPVVCLTRVCYGDCICRDGFLRNKNGACVKAEDC
# modifications: Sequence derived from Ancylostoma caninum or Synthetic
# B3: NAPTin-3 (protein)
# chain: NPSCGENERHDECSRKECDPKCKYDGTEEKDDEKPVVCLTRVCYGDCICRDGFLRNKNGACVKAEDCELDNM
# modifications: Sequence derived from Ancylostoma caninum or Synthetic
# Legend:
# [1] = system: SD rats; assay: Rat arterio-venous shunt thrombus formation model; type: in vivo; conditions: 100 U·kg^−1 i.v.
# Experimental: 50 SPF grade male SD rats (provided by the laboratory animal center of Guangdong Medical College, 300-350 g body weight) were randomly divided into saline control group, positive control group (100 U·kg^−1 heparin sodium, Shanghai No. 1 Biochemical & Pharmaceutical Co. Ltd), and rNAPT-1 low dose (100 μg·kg^−1), middle dose (1 mg·kg^−1), high dose group (5 mg·kg^−1), 10 rats each group, respectively. These rats were anaesthetized with 10% chloral hydrate (250 mg/kg) by intraperitoneal injection. The right common carotid artery and left external jugular vein was exposed and dissected bluntly from the surrounding tissue after a surgical incision. One end of a polyethylene pipe (1.5 mm of diameter, 22 cm of length) with a 5 cm length of No. 4 operation suture in it and filled with 50 U/mL heparin solution was inserted into the right common carotid artery, and the other end was inserted into the left external […] vein. 5 min after tail intravenous injection of drugs, the artery clamp was opened, and blood flow from the right common carotid artery to the left external jugular vein through the polyethylene pipe. After 15 min of blood flow, the suture line was quickly removed and weighed. The net weight of thrombus is total weight minus suture weight; inhibition rate=(wet weight of thrombus of saline control group−wet weight of thrombus of administration group)/wet weight of thrombus of saline control group×100%.
# [2] = system: normal human plasma; assay: aPTT assay in normal human plasma; type: biochemical; conditions: for prolongation of aPTT (in words): 100 nM and 500 nM; for aPTT: normal human plasma; for multiples of prolonging aPTT: ratio of mean aPTT to blank control
# Experimental: (§1) The recombinant anticoagulant polypeptides were expressed in Escherichia coli and purified in our laboratory. Anticoagulant activity was determined by measuring the aPTT and PT.
# For the aPTT assay, 10 μl recombinant protein at various concentrations was mixed with 50 μl fresh normal human plasma, 20 μl aPTT reagent (MDC Hemostasis, Germany) and incubated for 15 mins at 37° C. 20 μl 0.05 mol/L prewarmed CaCl2 was then added to initiate the clotting reaction. The clotting time was measured with the absorbance at 630 nm by using an E1x808 kinetic microtiter reader (BioTek, United States). Each concentration was repeated 3 times. The ratio of the mean aPTT value of each concentration to blank control group is multiples of prolonging the aPTT.
# [3] = system: normal human plasma; assay: PT assay in normal human plasma; type: biochemical; conditions: for prolongation of PT (in words): 100 nM and 500 nM; for PT: normal human plasma
# Experimental: as §1
# For the PT assay, 10 μl recombinant protein at various concentration was mixed with 45 μl normal human plasma and incubated for 15 mins at 37° C. 45 μl prewarmed PT reagent (MDC Hemostasis, Germany) was then added and the clotting time was measured with the absorbance at 630 nm by using an E1x808 kinetic microtiter reader (BioTek, United States). Each concentration was repeated 3 times.
# [4] = target: T2, human fXIa (Homo sapiens, UniProt P03951); assay: Chromogenic assay, fXIa; type: biochemical; conditions: for inhibition of the activity of fXIa: 100 nM; for inhibition of the activity of fXIa (in words): 200 nM
# T2 construct: Human coagulation factors IIa (thrombin), Xa, XIa, XIIa, EGR-fXa; purchased Haematologic Technologies Inc (United States)
# T2 sequence (P03951 19-387 limits assumed): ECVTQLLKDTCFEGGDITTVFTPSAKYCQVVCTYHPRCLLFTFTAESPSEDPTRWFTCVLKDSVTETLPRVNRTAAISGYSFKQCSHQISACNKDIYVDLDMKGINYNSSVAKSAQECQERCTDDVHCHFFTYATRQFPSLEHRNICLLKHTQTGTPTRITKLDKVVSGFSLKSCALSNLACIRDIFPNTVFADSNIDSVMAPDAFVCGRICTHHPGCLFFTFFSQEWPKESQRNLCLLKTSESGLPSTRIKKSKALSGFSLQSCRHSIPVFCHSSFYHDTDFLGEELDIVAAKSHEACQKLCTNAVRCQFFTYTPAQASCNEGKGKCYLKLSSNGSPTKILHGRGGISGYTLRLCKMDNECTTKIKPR
# T2 sequence (P03951 388-625 limits assumed): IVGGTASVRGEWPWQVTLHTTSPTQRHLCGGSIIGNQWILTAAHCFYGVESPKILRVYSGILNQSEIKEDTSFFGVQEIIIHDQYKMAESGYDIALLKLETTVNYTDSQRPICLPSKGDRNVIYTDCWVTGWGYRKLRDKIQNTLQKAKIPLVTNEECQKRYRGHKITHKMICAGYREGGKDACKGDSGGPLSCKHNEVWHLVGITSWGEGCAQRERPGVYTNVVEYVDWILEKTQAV
# From the text: (§2) The recombinant anticoagulant polypeptides in the present invention were expressed in E. coli and purified in our laboratory, of which the activities against coagulation factors were investigated by chromogenic assays. Human coagulation factors IIa (thrombin), Xa, XIa, XIIa, EGR-fXa were products of Haematologic Technologies Inc (United States). Recombinant fVIIa was products of Novo-Nordisk (Denmark). Recombinant soluble tissue factor (sTF) was purchased from Protgen (Beijing, China). The following chromogenic substrates were used for these coagulation factor assays: S2765 for human fXa, S2288 for human fVIIa and fIIa, 52366 for human fXIa and fXIIa, respectively.
# (§3) The chromogenic assays were carried out in a total reaction volume of 100 μl in individual wells of a 96-well microtiter plate. 50 μl fIIa, fXa, fXIa, or fXIIa (final concentration: 1 nM) was incubated with 10 μl recombinant anticoagulant polypeptide at various concentrations (or PBS control group) Assays for the detection activity of fVIIa: 50 μl fVIIa+TF (1 μM) and EGR-fXa (final concentration 500 nM) was incubated for 15 mins at 25° C., respectively. After the addition of 40 μl of prewarmed chromogenic substrate to a final concentration of 400 μM, the changes of absorbance at 405 nm were monitored by using an E1x808 kinetic microtiter reader. The data were used to calculate the velocities of response.
# [5] = target: T3, human fIIa (thrombin) (Homo sapiens, UniProt P00734); assay: Chromogenic assay, fIIa (thrombin); type: biochemical
# T3 construct: Human coagulation factors IIa (thrombin), Xa, XIa, XIIa, EGR-fXa; purchased Haematologic Technologies Inc (United States)
# From the text: as §2, §3
# [6] = target: T4, human fXa (Homo sapiens, UniProt P00742); assay: Chromogenic assay, fXa; type: biochemical
# T4 construct: Human coagulation factors IIa (thrombin), Xa, XIa, XIIa, EGR-fXa; purchased Haematologic Technologies Inc (United States)
# T4 sequence (P00742 41-179 limits assumed): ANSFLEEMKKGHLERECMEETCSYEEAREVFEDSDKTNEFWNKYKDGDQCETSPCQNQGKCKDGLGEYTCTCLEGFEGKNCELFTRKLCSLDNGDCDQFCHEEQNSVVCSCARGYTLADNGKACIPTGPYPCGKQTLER
# T4 sequence (P00742 235-488 limits assumed): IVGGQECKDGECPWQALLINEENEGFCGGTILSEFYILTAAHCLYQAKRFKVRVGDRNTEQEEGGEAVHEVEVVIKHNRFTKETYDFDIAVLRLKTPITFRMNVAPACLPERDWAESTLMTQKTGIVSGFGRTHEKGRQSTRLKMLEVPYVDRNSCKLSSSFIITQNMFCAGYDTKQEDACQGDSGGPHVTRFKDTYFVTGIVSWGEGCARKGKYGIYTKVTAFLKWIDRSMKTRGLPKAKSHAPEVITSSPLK
# From the text: as §2, §3
# [7] = target: T1, human fXIIa; assay: Chromogenic assay, fXIIa; type: biochemical
# From the text: as §2, §3
# [8] = target: T5, fVIIa/TF (Homo sapiens, UniProt P08709); assay: Chromogenic assay, fVIIa/TF; type: biochemical
# T5 construct: Recombinant fVIIa was products of Novo-Nordisk (Denmark); purchased Novo-Nordisk (Denmark) for fVIIa; Protgen (Beijing, China) for sTF; Haematologic Technologies Inc for EGR-fXa
# T5 sequence (P08709 61-212 limits assumed): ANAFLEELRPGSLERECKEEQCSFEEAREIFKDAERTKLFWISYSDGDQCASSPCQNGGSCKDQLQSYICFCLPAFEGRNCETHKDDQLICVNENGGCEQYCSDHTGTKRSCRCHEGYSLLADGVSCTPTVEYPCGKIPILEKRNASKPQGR
# T5 sequence (P08709 213-466 limits assumed): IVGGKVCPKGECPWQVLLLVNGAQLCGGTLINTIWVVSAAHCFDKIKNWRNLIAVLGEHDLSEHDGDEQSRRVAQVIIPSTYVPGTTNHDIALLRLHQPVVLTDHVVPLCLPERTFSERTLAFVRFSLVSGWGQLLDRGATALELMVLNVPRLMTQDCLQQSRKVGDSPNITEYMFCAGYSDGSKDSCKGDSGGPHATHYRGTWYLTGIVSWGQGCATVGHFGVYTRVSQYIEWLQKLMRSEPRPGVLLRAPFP
# T5 sequence (P13726 33-251 partner limits assumed): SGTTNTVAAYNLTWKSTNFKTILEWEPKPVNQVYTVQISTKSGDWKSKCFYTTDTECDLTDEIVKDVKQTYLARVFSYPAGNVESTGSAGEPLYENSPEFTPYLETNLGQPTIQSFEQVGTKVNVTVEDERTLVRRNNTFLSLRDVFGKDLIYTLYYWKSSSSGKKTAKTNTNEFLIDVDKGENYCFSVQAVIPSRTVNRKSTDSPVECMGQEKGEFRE
# From the text: as §2, §3
# [9] = system: BALb/c mice; assay: Mouse tail bleeding time; type: in vivo; conditions: tail transected after 10 min
# Experimental: After 10 min, the distal tip 1.5 mm of the mouse tail was transected and the blood oozed was soaked with filter paper very 30 seconds until the bleeding stops. The bleeding time was defined as the time elapsed from the tail transection to the stoppage of bleeding.
Molecule,prolongation of aPTT (in words) [2],aPTT ([2]; 100 nM) [s],multiples of prolonging aPTT ([2]; 100 nM),aPTT ([2]; 500 nM) [s],multiples of prolonging aPTT ([2]; 500 nM),prolongation of PT (in words) [3],PT ([3]; 100 nM) [s],PT ([3]; 500 nM) [s],inhibition of the activity of fXIa [4],inhibition of the activity of fXIa (in words) [4],effect on fIIa activity (in words) ([5]; 100 nM),effect on fIIa activity (in words) ([5]; 200 nM),effect on fXa activity (in words) ([6]; 100 nM),effect on fXa activity (in words) ([6]; 200 nM),effect on fXIIa activity (in words) ([7]; 100 nM),effect on fXIIa activity (in words) ([7]; 200 nM),effect on fVIIa/TF activity (in words) ([8]; 100 nM),effect on fVIIa/TF activity (in words) ([8]; 200 nM),Bleeding time ([9]; 100 μg·kg^−1 tail vein) [min],Bleeding time ([9]; 1 mg·kg^−1 tail vein) [min],also measured
heparin sodium [reference compound],,,,,,,,,,,,,,,,,,,,,wet weight of thrombus [1]: 14.2 ± 3.6 mg; Inhibition rate % ([1]; vs saline control): 74.3%
B1,significantly prolong aPTT,77.9 ± 2.9,1.94,226.8 ± 6.6,5.66,couldn't prolong PT,12.2 ± 0.6,12.6 ± 0.4,more than 90%,almost completely inhibited,without affecting,without affecting,without affecting,without affecting,without affecting,without affecting,without affecting,without affecting,8.30 ± 2.3,8.31 ± 1.0,Bleeding time ([9]; 5 mg·kg^−1 tail vein): 8.33 ± 2.4 min
B2,significantly prolong aPTT,78.7 ± 8.1,1.96,218.3 ± 5.9,5.44,couldn't prolong PT,11.7 ± 0.5,12.7 ± 0.4,more than 90%,almost completely inhibited,without affecting,without affecting,without affecting,without affecting,without affecting,without affecting,without affecting,without affecting,8.30 ± 2.0,8.26 ± 1.9,Bleeding time ([9]; 5 mg·kg^−1 tail vein): 8.31 ± 2.2 min
B3,significantly prolong aPTT,83.0 ± 1.2,2.07,219.3 ± 6.2,5.47,couldn't prolong PT,13.5 ± 0.4,12.3 ± 0.8,more than 90%,almost completely inhibited,without affecting,without affecting,without affecting,without affecting,without affecting,without affecting,without affecting,without affecting,8.38 ± 1.3,8.29 ± 2.5,Bleeding time ([9]; 5 mg·kg^−1 tail vein): 8.32 ± 1.8 min
